The values below come from patent US20210130436A1.

Values joined by “and” are separate entries in the source; they are usually repeats but may differ in a detail not shown here. Equal values may be shown once.

Chain of PD-L1 on K562/OKT3/PD-L1 artificial antigen presenting cells (Q9NZQ7 19-290): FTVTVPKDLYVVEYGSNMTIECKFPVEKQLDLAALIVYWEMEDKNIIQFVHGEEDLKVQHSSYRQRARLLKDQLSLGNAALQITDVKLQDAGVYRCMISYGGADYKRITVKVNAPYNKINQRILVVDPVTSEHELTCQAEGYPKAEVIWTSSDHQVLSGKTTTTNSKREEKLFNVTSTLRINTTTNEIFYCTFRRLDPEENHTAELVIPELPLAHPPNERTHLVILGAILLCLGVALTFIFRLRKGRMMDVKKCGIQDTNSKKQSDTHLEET
Chain of human CTLA4 (full-length, expressed on CHO cells) (human) (P16410 36-223): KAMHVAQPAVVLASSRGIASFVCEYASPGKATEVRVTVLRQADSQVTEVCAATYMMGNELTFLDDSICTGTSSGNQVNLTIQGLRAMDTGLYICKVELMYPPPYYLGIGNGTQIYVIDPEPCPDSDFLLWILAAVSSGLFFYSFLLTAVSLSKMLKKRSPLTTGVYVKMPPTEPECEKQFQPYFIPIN
Chain of Wild Type PD-L2 IgV-Fc (Q9BQ51 20-121): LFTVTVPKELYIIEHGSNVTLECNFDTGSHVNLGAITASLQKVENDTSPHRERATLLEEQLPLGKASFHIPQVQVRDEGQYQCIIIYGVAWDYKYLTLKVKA

One assay has as its target human CTLA4 (full-length, expressed on CHO cells) (human) (UniProt P16410). As to the kind of experiment: flow cytometry, CHO cells expressing huCTLA4, PE anti-human Fc. A general note: In flow cytometry, cells or beads pass a laser one at a time.
Regarding “variant CD80 IgV-Fc E35D/M47I/K54R/L85E (from UniProt P33681 35-141) (Fc fusion)”, the MFI at 33.3 nM stood at 8660 MFI. Substance “variant CD80 IgV-Fc Q33K/E35D/D46V/L85Q (from UniProt P33681 35-141) (Fc fusion)” returned an MFI at 33.3 nM of 8510 MFI.

For another assay, the target named is human PD-L1, full length, expressed on transfected HEK293 cells (human) (UniProt Q9NZQ7). As to the kind of experiment: flow cytometry, HEK293 cells transfected with human PD-L1.
Chain of human PD-L1, full length, expressed on transfected HEK293 cells (human) (Q9NZQ7 19-290): as the sequence (Q9NZQ7 19-290) above
Consider “variant CD80 IgV-Fc E35D/T57A/A71D/L85Q (from UniProt P33681 35-141) (Fc fusion)”, for which the MFI at 22.2 nM stood at 1760 MFI. As to “variant CD80 IgV-Fc H18Y/A71D/L72P/E88V (from UniProt P33681 35-141) (Fc fusion)”, the MFI at 22.2 nM is 1080 MFI.

“variant CD80 IgV-Fc L70Q/A71D (from UniProt P33681 35-141) (Fc fusion)” had an MFI at 22.2 nM of 1690 MFI. The same measure, in the same setting: the result for “variant CD80 IgV-Fc M47V/I69F/A71D/V83I (from UniProt P33681 35-141) (Fc fusion)” reads 3400 MFI; that for “variant CD80 IgV-Fc Q27H/E35G/A71D/L72P/T79I (from UniProt P33681 35-141) (Fc fusion)”, 1450 MFI; that for “variant CD80 IgV-Fc Q27L/E35D/M47I/T57I/L70Q/E88D (from UniProt P33681 35-141) (Fc fusion)”, 1050 MFI. For the substance “variant CD80 IgV-Fc T13R/M42V/M47I/A71D (from UniProt P33681 35-141) (Fc fusion)”, the MFI at 22.2 nM is 1870 MFI. Turning to “variant CD80 IgV-Fc V20I/A71D (from UniProt P33681 35-141) (Fc fusion)”, the MFI at 22.2 nM stood at 3550 MFI.

In turn, “variant CD80 IgV-Fc V22L/E35D/M43L/A71G/D76H (from UniProt P33681 35-141) (Fc fusion)” displayed an MFI at 22.2 nM of 1850 MFI. The same measure, in the same setting: the figure for “variant CD80 IgV-Fc V22L/E35G/A71D/L72P (from UniProt P33681 35-141) (Fc fusion)” is 1400 MFI.

The next assay deals with human CD28, full length, expressed on transfected HEK293 cells (human) (UniProt P10747). As to the kind of experiment: flow cytometry, HEK293 cells transfected with human CD28.
“variant CD80 IgV-Fc A26E/E35D/M47L/L85Q (from UniProt P33681 35-141) (Fc fusion)” yielded an MFI at 66.6 nM of 2270 MFI. Still for that read-out and setting: the result for “variant CD80 IgV-Fc N55I/T57I/I69F (from UniProt P33681 35-141) (Fc fusion)” reads 1900 MFI. Same read-out and setting: the result for “variant CD80 IgV-Fc V22L/E35D/M43L/A71G/D76H (from UniProt P33681 35-141) (Fc fusion)” reads 1500 MFI; that for “variant CD80 IgV-Fc Y31H/E35D/T41S/V68L/K93R/R94W (from UniProt P33681 35-141) (Fc fusion)”, 2450 MFI.

The next assay addresses CD28, endogenously expressed on Jurkat/IL2 reporter cells (human) (UniProt P10747). The experiment in a line: flow cytometry, Jurkat/IL2 reporter cells (endogenous CD28).
The substance “variant CD80 IgV-Fc E24D/E35D/M47L/V68M/E95V/L97Q (from UniProt P33681 35-141) (Fc fusion)” registered an MFI at 33.3 nM of 15 MFI. Still for that read-out and setting: the result for “variant CD80 IgV-Fc E35D/D46E/M47L/V68M/T79M/L85M/L97Q (from UniProt P33681 35-141) (Fc fusion)” reads 14 MFI; that for “variant CD80 IgV-Fc E35D/M47L/V68M/E95V/L97Q (from UniProt P33681 35-141) (Fc fusion)”, 14 MFI; that for “variant CD80 IgV-Fc Q27L/Q33L/E35D/T41S/M47V/N48K/V68M/L85M (from UniProt P33681 35-141) (Fc fusion)”, 15 MFI.

Take “variant CD80 IgV-Fc Q33L/E35D/M47V/T62S/V68M/L85M (from UniProt P33681 35-141) (Fc fusion)”: the MFI at 33.3 nM was found to be 15 MFI. Still for that read-out and setting: the figure for “variant CD80 IgV-Fc Q33R/E35D/M38I/M47L/V68M (from UniProt P33681 35-141) (Fc fusion)” is 15 MFI.

“variant CD80 IgV-Fc R29C/E35D/M47L/V68M/A71G/L85M (from UniProt P33681 35-141) (Fc fusion)”: the MFI at 33.3 nM is 16 MFI.

For the next assay, the target named is PD-1 (PDCD1) (Homo sapiens (Human)) (UniProt Q15116). The experiment in a line: cell-based or functional assay.
Chain of PD-1 (PDCD1) (Homo sapiens (Human)) (Q15116 21-288): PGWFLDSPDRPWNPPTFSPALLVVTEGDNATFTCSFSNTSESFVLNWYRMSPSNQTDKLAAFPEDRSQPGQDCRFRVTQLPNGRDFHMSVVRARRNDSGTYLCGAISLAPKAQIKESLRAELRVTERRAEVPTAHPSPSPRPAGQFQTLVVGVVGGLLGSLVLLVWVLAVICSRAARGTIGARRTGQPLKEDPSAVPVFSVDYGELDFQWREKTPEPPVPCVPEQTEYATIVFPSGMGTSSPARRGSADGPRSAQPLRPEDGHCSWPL
In the case of “PD-L2 E44D IgV-Fc (from UniProt Q9BQ51 20-121) (Fc fusion)”, the IFN gamma levels pg/mL (MLR) was determined as 1500 pg/mL. In turn, “PD-L2 E44D/S67L/Q72H/Q82R/V89D IgV-Fc (from UniProt Q9BQ51 20-121) (Fc fusion)” displayed an IFN gamma levels pg/mL (MLR) of 1280 pg/mL. For the substance “PD-L2 E59G/Q82R IgV-Fc (from UniProt Q9BQ51 20-121) (Fc fusion)”, the IFN gamma levels pg/mL (MLR) worked out at 1510 pg/mL. The same measure, in the same setting: the figure for “PD-L2 H15Q/C23S/I86T IgV-Fc (from UniProt Q9BQ51 20-121) (Fc fusion)” is 1850 pg/mL; for “PD-L2 H15Q/E44D/R76G/I85F IgV-Fc (from UniProt Q9BQ51 20-121) (Fc fusion)” it is 1390 pg/mL; for “PD-L2 H15Q/K65R IgV-Fc (from UniProt Q9BQ51 20-121) (Fc fusion)” it is 1510 pg/mL. As to “PD-L2 H15Q/L33H/S67L/R76G/Q82R/V89D IgV-Fc (from UniProt Q9BQ51 20-121) (Fc fusion)”, the IFN gamma levels pg/mL (MLR) is 1500 pg/mL.

“PD-L2 H15Q/L33P/T47A/S67L/P71S/V89D IgV-Fc (from UniProt Q9BQ51 20-121) (Fc fusion)” gave an IFN gamma levels pg/mL (MLR) of 1290 pg/mL. “PD-L2 H15Q/N32D/S67L/V89D IgV-Fc (from UniProt Q9BQ51 20-121) (Fc fusion)” came in with an IFN gamma levels pg/mL (MLR) of 1290 pg/mL. Same read-out and setting: the figure for “PD-L2 H15Q/Q72H/V89D IgV-Fc (from UniProt Q9BQ51 20-121) (Fc fusion)” is 1270 pg/mL; for “PD-L2 H15Q/R76G/I85F IgV-Fc (first entry) (from UniProt Q9BQ51 20-121) (Fc fusion)” it is 1730 pg/mL; for “PD-L2 H15Q/S39I/I86T IgV-Fc (from UniProt Q9BQ51 20-121) (Fc fusion)” it is 1420 pg/mL.

The substance “PD-L2 H15Q/S67L/R76G IgV-Fc (from UniProt Q9BQ51 20-121) (Fc fusion)” yielded an IFN gamma levels pg/mL (MLR) of 1430 pg/mL. Same read-out and setting: the figure for “PD-L2 H15Q/S67L/R76G/I85F IgV-Fc (from UniProt Q9BQ51 20-121) (Fc fusion)” is 1320 pg/mL; for “PD-L2 H15Q/T47A/K65R/S67L/Q82R/V89D IgV-Fc (from UniProt Q9BQ51 20-121) (Fc fusion)” it is 1340 pg/mL; for “PD-L2 H15Q/T47A/Q72H/R76G IgV-Fc (from UniProt Q9BQ51 20-121) (Fc fusion)” it is 1460 pg/mL.

In turn, “PD-L2 H15Q/T47A/Q82R IgV-Fc (from UniProt Q9BQ51 20-121) (Fc fusion)” registered an IFN gamma levels pg/mL (MLR) of 1320 pg/mL. “PD-L2 H15Q/V89D IgV-Fc (from UniProt Q9BQ51 20-121) (Fc fusion)”: the IFN gamma levels pg/mL (MLR) amounted to 1500 pg/mL. “PD-L2 I12V/I13V/H15Q/T47A/Q82R/V89D IgV-Fc (from UniProt Q9BQ51 20-121) (Fc fusion)” registered an IFN gamma levels pg/mL (MLR) of 1530 pg/mL. “PD-L2 I13V/H15Q/E44D/V89D IgV-Fc (from UniProt Q9BQ51 20-121) (Fc fusion)” yielded an IFN gamma levels pg/mL (MLR) of 1380 pg/mL.

In turn, “PD-L2 I13V/H15Q/E44V/T47A/Q82R/V89D IgV-Fc (from UniProt Q9BQ51 20-121) (Fc fusion)” returned an IFN gamma levels pg/mL (MLR) of 1270 pg/mL.

“PD-L2 I13V/H15Q/I36V/T47A/S67L/V89D IgV-Fc (from UniProt Q9BQ51 20-121) (Fc fusion)” returned an IFN gamma levels pg/mL (MLR) of 1360 pg/mL. As for “PD-L2 I13V/H15Q/L33F/T47A/Q82R/V89D IgV-Fc (from UniProt Q9BQ51 20-121) (Fc fusion)”, the IFN gamma levels pg/mL (MLR) worked out at 1470 pg/mL. “PD-L2 I13V/H15Q/Q82R IgV-Fc (from UniProt Q9BQ51 20-121) (Fc fusion)” yielded an IFN gamma levels pg/mL (MLR) of 1430 pg/mL. Same read-out and setting: the result for “PD-L2 I13V/H15Q/R76G/I85F IgV-Fc (from UniProt Q9BQ51 20-121) (Fc fusion)” reads 1530 pg/mL; that for “PD-L2 I13V/H15Q/T47A/Q72H/R76G IgV-Fc (from UniProt Q9BQ51 20-121) (Fc fusion)”, 1470 pg/mL. The same measure, in the same setting: the result for “PD-L2 I13V/H15Q/T47A/Q82R/V89D IgV-Fc (from UniProt Q9BQ51 20-121) (Fc fusion)” reads 1450 pg/mL and 1740 pg/mL; that for “PD-L2 I13V/Q72H/R76G/I86T IgV-Fc (from UniProt Q9BQ51 20-121) (Fc fusion)”, 1950 pg/mL. Still for that read-out and setting: the figure for “PD-L2 I13V/S67L/Q82R/V89D IgV-Fc (from UniProt Q9BQ51 20-121) (Fc fusion)” is 1370 pg/mL; for “PD-L2 N24D IgV-Fc (from UniProt Q9BQ51 20-121) (Fc fusion)” it is 1980 pg/mL; for “PD-L2 S39I/V89D IgV-Fc (from UniProt Q9BQ51 20-121) (Fc fusion)” it is 1310 pg/mL.

Regarding “PD-L2 S67L/I85F IgV-Fc (from UniProt Q9BQ51 20-121) (Fc fusion)”, the IFN gamma levels pg/mL (MLR) was 1280 pg/mL.

Consider “Wild Type PD-L2 IgV-Fc (from UniProt Q9BQ51 20-121) (Fc fusion)”, for which the IFN gamma levels pg/mL (MLR) is 1380 pg/mL.

The next assay concerns the target PD-L1 on K562/OKT3/PD-L1 artificial antigen presenting cells (UniProt Q9NZQ7). As to the kind of experiment: cell-based or functional assay.
For “CD80 V22D/E35D/M47L/L85Q IgV-Fc (inert) (Fc fusion)”, the Fold Increase over WT CD80-IgV-Fc (RLU, Jurkat/IL2 + K562/OKT3/PD-L1 reporter assay, 50 nM) amounted to 5.5 fold and the Relative Luciferase Units (RLU), Jurkat/IL2 + K562/OKT3/PD-L1 reporter assay, CD80-Fc Conc 50 nM came out at 1140 RLU.

Consider “CD80 V22L/Q27H/E35D/M47I/A71G IgV-Fc (inert) (Fc fusion)”, for which the Fold Increase over WT CD80-IgV-Fc (RLU, Jurkat/IL2 + K562/OKT3/PD-L1 reporter assay, 50 nM) amounted to 5.5 fold and the Relative Luciferase Units (RLU), Jurkat/IL2 + K562/OKT3/PD-L1 reporter assay, CD80-Fc Conc 50 nM amounted to 1120 RLU.

A further assay has as its target CD28 on Jurkat/IL2 reporter cells (human) (UniProt P10747). As to the kind of experiment: cell-based or functional assay.
For “CD80 V22D/E35D/M47L/L85Q IgV-Fc (inert) (Fc fusion)”, the Fold Increase over WT CD80-IgV-Fc (RLU, Jurkat/IL2 + K562/OKT3/PD-L1 reporter assay, 50 nM) is 5.5 fold and the Relative Luciferase Units (RLU), Jurkat/IL2 + K562/OKT3/PD-L1 reporter assay, CD80-Fc Conc 50 nM amounted to 1140 RLU. For the substance “CD80 V22L/Q27H/E35D/M47I/A71G IgV-Fc (inert) (Fc fusion)”, the Fold Increase over WT CD80-IgV-Fc (RLU, Jurkat/IL2 + K562/OKT3/PD-L1 reporter assay, 50 nM) was determined as 5.5 fold and the Relative Luciferase Units (RLU), Jurkat/IL2 + K562/OKT3/PD-L1 reporter assay, CD80-Fc Conc 50 nM was found to be 1120 RLU.
